Our source for the Kd values is paper doi:10.1101/2020.02.07.938506 (2020).

The target in this assay is T1, MNV P domain (protruding domain of the capsid protein VP1 of murine norovirus) (murine norovirus (MNV), strain CW3, UniProt Q80J94 225-541).
T1 chain: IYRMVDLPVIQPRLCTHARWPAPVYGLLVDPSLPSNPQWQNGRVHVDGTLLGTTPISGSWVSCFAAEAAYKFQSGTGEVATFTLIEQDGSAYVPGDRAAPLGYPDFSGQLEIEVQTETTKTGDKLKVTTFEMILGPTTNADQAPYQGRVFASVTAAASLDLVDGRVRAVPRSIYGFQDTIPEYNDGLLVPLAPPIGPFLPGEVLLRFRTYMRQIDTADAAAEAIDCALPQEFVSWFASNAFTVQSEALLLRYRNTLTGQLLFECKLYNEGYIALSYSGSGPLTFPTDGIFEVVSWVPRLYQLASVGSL
The assay can be described thus: ITC. In general terms: ITC needs no label: the signal is the heat of the interaction.

B1: Nanobody NB-5829 (VHH)
VHH: QVQLQESGGGLVEAGGSLRLSCLGSGLTFSRYAMGWFRQAPGKEREFVASITRSGGSPNYADSVKGRFTISRDNAKNTVYLQMSSLKPEDTAVYYCAGRGSVYYDVWGQGTQVTVSS
Broadly, the Kd is the equilibrium constant for the complex coming apart. B1 gave an equilibrium dissociation constant (Kd) of 1.4 nM.
